Laboratory results as given in patent US20210246166A1 (Bayer, published 2021).
Numbered stars: 1 amine (or outer) side, 2 acyl side, 3 side chain; on linkers, the order of the positions; unused ones are H or OH. Bridge positions count the residues as written; N and C are the ends. Square brackets hold non-standard residues; d marks the D form. Primed or numbered codes have the meaning given here. Ends that are not written are not given here. * marks the point of attachment. TTDS = 1,13-diamino-4,7,10-trioxatridecan-succinamic acid, O=C(CCC(=O)[*:2])NCCCOCCOCCOCCCN[*:1]; Tranexamic″ = tranexamic acid, NC[C@H]1CC[C@@H](C(=O)*)CC1; NH(CH2CH2O)5CH2CO = O=C(COCCOCCOCCOCCOCCN[*:1])[*:2]; NH(CH2CH2O)4CH2CO = O=C(COCCOCCOCCOCCN[*:1])[*:2]; Oic = O=C(O)[C@@H]1C[C@@H]2CCCC[C@@H]2N1; PEG8 = NCCOCCOCCOCCOCCOCCOCCOCCOCCC(=O)O; Phe(4-Br) = N[C@@H](Cc1ccc(Br)cc1)C(=O)O; Pro(cis-4-F) = O=C(O)[C@@H]1C[C@H](F)CN1; PEG7 = NCCOCCOCCOCCOCCOCCOCCOCCC(=O)O; PEG6 = NCCOCCOCCOCCOCCOCCOCCC(=O)O; tBuAla = CC(C)(C)C[C@H](N)C(=O)O; PEG4 = NCCOCCOCCOCCOCCC(=O)O; Pen = CC(C)(S)[C@H](N)C(=O)O; Tranexamic = tranexamic acid; PEG3 = NCCOCCOCCOCCC(=O)O; Orn = NCCC[C@H](N)C(=O)O; Sar = CNCC(=O)O

T1: recombinant human MASP1 active protease (amino acids 297-699, C-terminal His Tag) (human, UniProt P48740 297-699)
T1 sequence: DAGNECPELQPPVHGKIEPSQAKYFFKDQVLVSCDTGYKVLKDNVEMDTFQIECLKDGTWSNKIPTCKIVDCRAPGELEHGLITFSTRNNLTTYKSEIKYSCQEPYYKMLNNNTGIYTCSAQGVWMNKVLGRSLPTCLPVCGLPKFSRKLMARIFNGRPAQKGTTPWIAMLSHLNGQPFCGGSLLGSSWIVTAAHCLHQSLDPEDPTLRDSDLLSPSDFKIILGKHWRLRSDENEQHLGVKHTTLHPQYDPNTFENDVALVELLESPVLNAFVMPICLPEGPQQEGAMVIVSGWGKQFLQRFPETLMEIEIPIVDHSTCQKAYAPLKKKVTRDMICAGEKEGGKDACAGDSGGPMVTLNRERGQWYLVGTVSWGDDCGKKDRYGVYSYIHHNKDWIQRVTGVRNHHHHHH

B1: Example 423: (Tranexamic)-IC+SRS-((tBu)A)-PPI-(Pen)+IP-(PEG3(16 atoms))-NH2 (peptide)
peptide: {Tranexamic″}-ICSRS[tBuAla]PPI[Pen]IP-{PEG4-NH2}
modifications: disulfide 2-10
SMILES: CC[C@H](C)[C@@H]1NC(=O)[C@@H]2CCCN2C(=O)[C@@H]2CCCN2C(=O)[C@H](CC(C)(C)C)NC(=O)[C@H](CO)NC(=O)[C@H](CCCNC(=N)N)NC(=O)[C@H](CO)NC(=O)[C@@H](NC(=O)[C@@H](NC(=O)[C@H]2CC[C@@H](CN)CC2)[C@@H](C)CC)CSSC(C)(C)[C@@H](C(=O)N[C@H](C(=O)N2CCC[C@H]2C(=O)NCCOCCOCCOCCOCCC(N)=O)[C@@H](C)CC)NC1=O
B2: Example 422: (Tranexamic)-IC+SRS-((tBu)A)-PPI-(Pen)+IP-(PEG4-CH2CO2H (15 atoms))-NH2 (peptide)
peptide: {Tranexamic″}-ICSRS[tBuAla]PPI[Pen]IP-{NH(CH2CH2O)4CH2CO-NH2}
modifications: disulfide 2-10
SMILES: CC[C@H](C)[C@@H]1NC(=O)[C@@H]2CCCN2C(=O)[C@@H]2CCCN2C(=O)[C@H](CC(C)(C)C)NC(=O)[C@H](CO)NC(=O)[C@H](CCCNC(=N)N)NC(=O)[C@H](CO)NC(=O)[C@@H](NC(=O)[C@@H](NC(=O)[C@H]2CC[C@@H](CN)CC2)[C@@H](C)CC)CSSC(C)(C)[C@@H](C(=O)N[C@H](C(=O)N2CCC[C@H]2C(=O)NCCOCCOCCOCCOCC(N)=O)[C@@H](C)CC)NC1=O
B3: Example 427: (Tranexamic)-IC+SRS-((tBu)A)-PPI-(Pen)+IP-(PEG8(28 atoms))-NH2 (peptide)
peptide: {Tranexamic″}-ICSRS[tBuAla]PPI[Pen]IP-{PEG8-NH2}
modifications: disulfide 2-10
SMILES: CC[C@H](C)[C@@H]1NC(=O)[C@@H]2CCCN2C(=O)[C@@H]2CCCN2C(=O)[C@H](CC(C)(C)C)NC(=O)[C@H](CO)NC(=O)[C@H](CCCNC(=N)N)NC(=O)[C@H](CO)NC(=O)[C@@H](NC(=O)[C@@H](NC(=O)[C@H]2CC[C@@H](CN)CC2)[C@@H](C)CC)CSSC(C)(C)[C@@H](C(=O)N[C@H](C(=O)N2CCC[C@H]2C(=O)NCCOCCOCCOCCOCCOCCOCCOCCOCCC(N)=O)[C@@H](C)CC)NC1=O
B4: Example 425: (Tranexamic)-IC+SRS-((tBu)A)-PPI-(Pen)+IP-(PEG5(22 atoms))-NH2 (peptide)
peptide: {Tranexamic″}-ICSRS[tBuAla]PPI[Pen]IP-{PEG6-NH2}
modifications: disulfide 2-10
SMILES: CC[C@H](C)[C@@H]1NC(=O)[C@@H]2CCCN2C(=O)[C@@H]2CCCN2C(=O)[C@H](CC(C)(C)C)NC(=O)[C@H](CO)NC(=O)[C@H](CCCNC(=N)N)NC(=O)[C@H](CO)NC(=O)[C@@H](NC(=O)[C@@H](NC(=O)[C@H]2CC[C@@H](CN)CC2)[C@@H](C)CC)CSSC(C)(C)[C@@H](C(=O)N[C@H](C(=O)N2CCC[C@H]2C(=O)NCCOCCOCCOCCOCCOCCOCCC(N)=O)[C@@H](C)CC)NC1=O
B5: Example 414: GIC+SRSLP-((cis-Fluoro)P)-IC+IPD-OH (peptide)
peptide: GICSRSLP[Pro(cis-4-F)]ICIPD-OH
modifications: disulfide 3-11; N-terminus assumed
SMILES: CC[C@H](C)[C@H](NC(=O)CN)C(=O)N[C@H]1CSSC[C@@H](C(=O)N[C@H](C(=O)N2CCC[C@H]2C(=O)N[C@@H](CC(=O)O)C(=O)O)[C@@H](C)CC)NC(=O)[C@H]([C@@H](C)CC)NC(=O)[C@@H]2C[C@H](F)CN2C(=O)[C@@H]2CCCN2C(=O)[C@H](CC(C)C)NC(=O)[C@H](CO)NC(=O)[C@H](CCCNC(=N)N)NC(=O)[C@H](CO)NC1=O
B6: Example 426: (Tranexamic)-IC+SRS-((tBu)A)-PPI-(Pen)+IP-(PEG7(25 atoms))-NH2 (peptide)
peptide: {Tranexamic″}-ICSRS[tBuAla]PPI[Pen]IP-{PEG7-NH2}
modifications: disulfide 2-10
SMILES: CC[C@H](C)[C@@H]1NC(=O)[C@@H]2CCCN2C(=O)[C@@H]2CCCN2C(=O)[C@H](CC(C)(C)C)NC(=O)[C@H](CO)NC(=O)[C@H](CCCNC(=N)N)NC(=O)[C@H](CO)NC(=O)[C@@H](NC(=O)[C@@H](NC(=O)[C@H]2CC[C@@H](CN)CC2)[C@@H](C)CC)CSSC(C)(C)[C@@H](C(=O)N[C@H](C(=O)N2CCC[C@H]2C(=O)NCCOCCOCCOCCOCCOCCOCCOCCC(N)=O)[C@@H](C)CC)NC1=O
B7: Example 419: ((N-Me)G)-IC+SRSLP-(Oic)-I-(Pen)+I-((5-Azaspiro[2.4]heptane-1-carboxylic acid)-OH (peptide)
peptide: [Sar]ICSRSLP[Oic]I[Pen]I[5‑Azaspiro(2.4)heptane‑1‑carboxylic acid]-OH
modifications: disulfide 3-11
B8: Example 416: GIC+SRS-((4-Bromo)F)-PPIC+IPD-OH (peptide)
peptide: GICSRS[Phe(4-Br)]PPICIPD-OH
modifications: disulfide 3-11; N-terminus assumed
SMILES: CC[C@H](C)[C@H](NC(=O)CN)C(=O)N[C@H]1CSSC[C@@H](C(=O)N[C@H](C(=O)N2CCC[C@H]2C(=O)N[C@@H](CC(=O)O)C(=O)O)[C@@H](C)CC)NC(=O)[C@H]([C@@H](C)CC)NC(=O)[C@@H]2CCCN2C(=O)[C@@H]2CCCN2C(=O)[C@H](Cc2ccc(Br)cc2)NC(=O)[C@H](CO)NC(=O)[C@H](CCCNC(=N)N)NC(=O)[C@H](CO)NC1=O
B9: Example 417: AIC+SRSLPPIC+((2S,3S)-2-((Amino)methyl)-3-methylpentanoic acid)-PD-NH2 (peptide)
peptide: AICSRSLPPIC[(2S,3S)‑2‑((Amino)methyl)‑3‑methylpentanoic acid]PD-NH2
modifications: disulfide 3-11
B10: Example 421: (Tranexamic)-IC+SRS-((tBu)A)-PPI-(Pen)+IP-(PEG2(13 atoms))-NH2 (peptide)
peptide: {Tranexamic″}-ICSRS[tBuAla]PPI[Pen]IP-{PEG3-NH2}
modifications: disulfide 2-10
SMILES: CC[C@H](C)[C@@H]1NC(=O)[C@@H]2CCCN2C(=O)[C@@H]2CCCN2C(=O)[C@H](CC(C)(C)C)NC(=O)[C@H](CO)NC(=O)[C@H](CCCNC(=N)N)NC(=O)[C@H](CO)NC(=O)[C@@H](NC(=O)[C@@H](NC(=O)[C@H]2CC[C@@H](CN)CC2)[C@@H](C)CC)CSSC(C)(C)[C@@H](C(=O)N[C@H](C(=O)N2CCC[C@H]2C(=O)NCCOCCOCCOCCC(N)=O)[C@@H](C)CC)NC1=O
B11: Example 433: ((N-Me)G)-IC+SRS-((tBu)A)-PPI-(Pen)+IPD-((N-Me)G)-((N-Me)G)-((N-Me)G)-NH2 (peptide)
peptide: [Sar]ICSRS[tBuAla]PPI[Pen]IPD[Sar][Sar][Sar]-NH2
modifications: disulfide 3-11; N-terminus assumed
SMILES: CC[C@H](C)[C@H](NC(=O)CNC)C(=O)N[C@H]1CSSC(C)(C)[C@@H](C(=O)N[C@H](C(=O)N2CCC[C@H]2C(=O)N[C@@H](CC(=O)O)C(=O)N(C)CC(=O)N(C)CC(=O)N(C)CC(N)=O)[C@@H](C)CC)NC(=O)[C@H]([C@@H](C)CC)NC(=O)[C@@H]2CCCN2C(=O)[C@@H]2CCCN2C(=O)[C@H](CC(C)(C)C)NC(=O)[C@H](CO)NC(=O)[C@H](CCCNC(=N)N)NC(=O)[C@H](CO)NC1=O
B12: Example 418: AIC+SRSLP-(Oic)-I-(Pen)+IPN-OH (peptide)
peptide: AICSRSLP[Oic]I[Pen]IPN-OH
modifications: disulfide 3-11; N-terminus assumed
SMILES: CC[C@H](C)[C@H](NC(=O)[C@H](C)N)C(=O)N[C@H]1CSSC(C)(C)[C@@H](C(=O)N[C@H](C(=O)N2CCC[C@H]2C(=O)N[C@@H](CC(N)=O)C(=O)O)[C@@H](C)CC)NC(=O)[C@H]([C@@H](C)CC)NC(=O)[C@@H]2C[C@@H]3CCCC[C@@H]3N2C(=O)[C@@H]2CCCN2C(=O)[C@H](CC(C)C)NC(=O)[C@H](CO)NC(=O)[C@H](CCCNC(=N)N)NC(=O)[C@H](CO)NC1=O
B13: Example 424: (Tranexamic)-IC+SRS-((tBu)A)-PPI-(Pen)+IP-(PEG5-CH2CO2H (18 atoms))-NH2 (peptide)
peptide: {Tranexamic″}-ICSRS[tBuAla]PPI[Pen]IP-{NH(CH2CH2O)5CH2CO-NH2}
modifications: disulfide 2-10
SMILES: CC[C@H](C)[C@@H]1NC(=O)[C@@H]2CCCN2C(=O)[C@@H]2CCCN2C(=O)[C@H](CC(C)(C)C)NC(=O)[C@H](CO)NC(=O)[C@H](CCCNC(=N)N)NC(=O)[C@H](CO)NC(=O)[C@@H](NC(=O)[C@@H](NC(=O)[C@H]2CC[C@@H](CN)CC2)[C@@H](C)CC)CSSC(C)(C)[C@@H](C(=O)N[C@H](C(=O)N2CCC[C@H]2C(=O)NCCOCCOCCOCCOCCOCC(N)=O)[C@@H](C)CC)NC1=O
B14: Example 429: (Tranexamic)-IC+SRS-((tBu)A)-PPI-(Pen)+IP-(TTDS)-NH2 (peptide)
peptide: [Tranexamic]ICSRS[tBuAla]PPI[Pen]IP[TTDS]-NH2
modifications: disulfide 3-11
B15: Example 430: ((N-Me)G)-IC+SRS-((tBu)A)-PPI-(Pen)+IP-(Orn)-(Orn)-(Orn)-NH2 (peptide)
peptide: [Sar]ICSRS[tBuAla]PPI[Pen]IP[Orn][Orn][Orn]-NH2
modifications: disulfide 3-11; N-terminus assumed
SMILES: CC[C@H](C)[C@H](NC(=O)CNC)C(=O)N[C@H]1CSSC(C)(C)[C@@H](C(=O)N[C@H](C(=O)N2CCC[C@H]2C(=O)N[C@@H](CCCN)C(=O)N[C@@H](CCCN)C(=O)N[C@@H](CCCN)C(N)=O)[C@@H](C)CC)NC(=O)[C@H]([C@@H](C)CC)NC(=O)[C@@H]2CCCN2C(=O)[C@@H]2CCCN2C(=O)[C@H](CC(C)(C)C)NC(=O)[C@H](CO)NC(=O)[C@H](CCCNC(=N)N)NC(=O)[C@H](CO)NC1=O

Experiments:
[1] = target: T1, recombinant human MASP1 active protease …; assay: cell-based or functional assay
[2] = target: recombinant human MASP2 active protease (amino acids 297-686, C-terminal His Tag) (human, UniProt O00187 297-686); assay: cell-based or functional assay
Sequence of recombinant human MASP2 active protease (amino acids 297-686, C-terminal His Tag) (O00187 other isoform, or with tags, fused parts or gaps limits assumed): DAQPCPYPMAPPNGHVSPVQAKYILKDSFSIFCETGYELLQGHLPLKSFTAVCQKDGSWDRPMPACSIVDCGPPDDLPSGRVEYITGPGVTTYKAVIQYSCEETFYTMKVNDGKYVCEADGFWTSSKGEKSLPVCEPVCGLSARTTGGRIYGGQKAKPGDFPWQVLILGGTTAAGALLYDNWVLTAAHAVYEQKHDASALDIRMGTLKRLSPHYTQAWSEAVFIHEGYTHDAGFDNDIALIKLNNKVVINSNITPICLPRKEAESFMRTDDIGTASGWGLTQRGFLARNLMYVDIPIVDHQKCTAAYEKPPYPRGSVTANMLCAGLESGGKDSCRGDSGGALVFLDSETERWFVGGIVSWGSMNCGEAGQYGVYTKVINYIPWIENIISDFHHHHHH

Row | Binder | human MASP1 IC50 [1] [nM] | human MASP2 IC50 [2] [nM]
1 | B1 | 5.7 | 12
2 | B2 | 8.1 | 12
3 | B3 | 10 | 15
4 | B4 | 7.7 | 13
5 | B5 | 86 | 4000
6 | B6 | 9.1 | 15
7 | B7 | 5.1 | 100
8 | B8 | 87 | 190
9 | B9 | 89 | 17000
10 | B10 | 5 | 9.8
11 | B11 | 1.7 | 120
12 | B12 | 1.8 | 130
13 | B13 | 6.6 | 11
14 | B14 | 6.9 | 12
15 | B15 | 1.4 | 91
